# Test results from patent US11319551B2, “Methods and compositions for PPO herbicide tolerance in plants” (Monsanto Technology LLC, priority 2015, dated 2022).
# Read-outs that look alike come from different tables or passages of the source.
# B1: E. coli HemG: E. coli PPO enzyme HemG (protoporphyrinogen IX dehydrogenase; GenBank Accession No. WP_021498199), SEQ ID NO:76 (protein, listed as Escherichia coli)
# chain: MKTLILFSTRDGQTREIASYLASELKELGIQADVANVHRIEEPQWENYDRVVIGASIRYGHYHSAFQEFVKKHATRLNSMPSAFYSVNLVARKPEKRTPQTNSYARKFLMNSQWRPDRCAVIAGALRYPRYRWYDRFMIKLIMKMSGGETDTRKEVVYTDWEQVANFAREIAHLTDKPTLK
# B2: A. tuberculatus PPO: wild-type protoporphyrinogen oxidase from Amaranthus tuberculatus (WH), SEQ ID NO:80, negative control expressed in E. coli (protein, listed as Amaranthus tuberculatus)
# chain: MGNISEREEPTSAKRVAVVGAGVSGLAAAYKLKSHGLSVTLFEADSRAGGKLKTVKKDGFIWDEGANTMTESEAEVSSLIDDLGLREKQQLPISQNKRYIARDGLPVLLPSNPAALLTSNILSAKSKLQIMLEPFLWRKHNATELSDEHVQESVGEFFERHFGKEFVDYVIDPFVAGTCGGDPQSLSMHHTFPEVWNIEKRFGSVFAGLIQSTLLSKKEKGGENASIKKPRVRGSFSFQGGMQTLVDTMCKQLGEDELKLQCEVLSLSYNQKGIPSLGNWSVSSMSNNTSEDQSYDAVVVTAPIRNVKEMKIMKFGNPFSLDFIPEVTYVPLSVMITAFKKDKVKRPLEGFGVLIPSKEQHNGLKTLGTLFSSMMFPDRAPSDMCLFTTFVGGSRNRKLANASTDELKQIVSSDLQQLLGTEDEPSFVNHLFWSNAFPLYGHNYDSVLRAIDKMEKDLPGFFYAGNHKGGLSVGKAMASGCKAAELVISYLDSHIYVKMDEKTA
# B3: R2N70: microbial HemY protoporphyrinogen oxidase, SEQ ID NO:3 (protein, listed as Bacillus subtilis)
# chain: MSDGKKHVVIIGGGITGLAAAFYMEKEIKEKNLPLELTLVEASPRVGGKIQTVKKDGYIIERGPDSFLERKKSAPQLVKDLGLEHLLVNNATGQSYVLVNRTLHPMPKGAVMGIPTKIAPFVSTGLFSLSGKARAAMDFILPASKTKDDQSLGEFFRRRVGDEVVENLIEPLLSGIYAGDIDKLSLMSTFPQFYQTEQKHRSLILGMKKTRPQGSGQQLTAKKQGQFQTLSTGLQTLVEEIEKQLKLTKVYKGTKVTKLSHSGSGYSLELDNGVTLDADSVIVTAPHKAAAGMLSELPAISHLKNMHSTSVANVALGFPEGSVQMEHEGTGFVISRNSDFAITACTWTNKKWPHAAPEGKTLLRAYVGKAGDESIVDLSDNDIINIVLEDLKKVMNINGEPEMTCVTRWHESMPQYHVGHKQRIKELREALASAYPGVYMTGASFEGVGIPDCIDQGKAAVSDALTYLFS
# B4: R1 N311: microbial HemY protoporphyrinogen oxidase, SEQ ID NO:16 (protein, listed as Bacillus atrophaeus)
# chain: MSDGKKHLVIIGGGITGLASAFYMEKEIREKNLPLSVTLVEASPRVGGKIQTARKDGYIIERGPDSFLERKKSAPELVEDLGLEHLLVNNATGQSYVLVNETLHPMPKGAVMGIPTKIAPFMSTGLFSFSGKARAAMDFVLPASKPKEDQSLGEFFRRRVGDEVVENLIEPLLSGIYAGDIDRLSLMSTFPQFYQTEQKHRSLILGMKKTRPQGSGQRLTAKKQGQFQTLKTGLQTLVEELENQLKLTKVYKGTKVTNISRGEKGCSIALDNGMTLDADAAIVTSPHKSAAGMFPDLPAVSQLKDMHSTSVANVALGFPQEAVQMEHEGTGFVISRNSDFSITACTWTNKKWPHSAPEGKTLLRAYVGKAGDESIVELSDNEIIKIVLEDLKKVMKIKGEPEMTCVTRWNESMPQYHVGHKQRIKKVREALAASYPGVYMTGASFEGVGIPDCIDQGKSAVSDVLAYLFG
# B5: R1N333: microbial HemY PPO, SEQ ID NO:17 in bacterial assay; truncated SEQ ID NO:21 in soybean (protein, listed as Bacillus atrophaeus)
# chain: MSDGKKHLVIIGGGITGLASAFYMEKEIREKNLPLSVTLVEASPRVGGKIQTARKDGYIIERGPDSFLERKKSAPELVEDLGLEHLLVNNATGQSYVLVNETLHPMPKGAVMGIPTKIAPFMSTRLFSFSGKARAAMDFVLPASKPKEDQSLGEFFRRRVGDEVVENLIEPLLSGIYAGDIDRLSLMSTFPQFYQTEQKHRSLILGMKKTRPQGSGQQLTAKKQGQFQTLKTGLQTLVEELENQLKLTKVYKGTKVTNISRGEKGCSIALDNGMTLDADAAIVTSPHKSAAGMFPDLPAVSQLKDMHSTSVANVALGFPQEAVQMEHEGTGFVISRNSDFSITACTWTNKKWPHSAPEGKTLLRAYVGKAGDESIVELSDNEIIKIVLEDLKKVMKIKGEPEMTCVTRWNESMPQYHVGHKQRIKKVREALAASYPGVYMTGASFEGVGIPDCIDQGKSAVSDVLAYLFE
# Legend:
# [1] = tested on: hemG knockout E. coli strain; format: cell-based
# [2] = PPO enzyme assay, apparent Km for substrate; format: biochemical; conditions: substrate protoporphyrinogen
# [3] = tested on: transgenic soybean plants; test: S-3100 herbicide injury of R0 transgenic soybean plants at eleven weeks; format: in vivo; conditions: for tolerance to the PPO herbicide, R0 plants at eleven weeks: S-3100, injury rating compared with non-transgenic control (30% or above); for Tolerance score to S-3100 at 11 weeks (herbicide injury rating): R0 plants, seven days after treatment
# Description: (§1) The microbial HemY PPO enzymes were expressed in transgenic soybean plants, and the transgenic plants were analyzed for PPO herbicide tolerance. […] For plant transformation, the nucleotide sequences encoding the HemY PPO enzymes were codon optimized for dicot expression. This permitted the side-by-side comparison of the seven different HemY PPO enzymes with thirty-nine different targeting peptides using the same promoter and 3′UTR elements for gene expression
# (§2) The plant transformation constructs were used to transform soybean excised embryos (germplasm A3555) using A. tumefaciens and standard methods known in the art. Four hundred explants were inoculated for each construct resulting in twelve containers per construct. A sterile PPO herbicide solution was used for herbicide tolerance testing. The herbicide solution consisted of 0.3 g of S-3100 in crop oil concentrate (5.0 mL) and 495 mL of deionized water. This was filtered through a 0.45 micron Nalgene® Rapid-Flow™ Tissue Culture Filter Unit and Surfactant-Free Cellulose Acetate membrane filter unit (VWR, Radnor, Pa., USA). The resulting sterile solution was shaken before application.
# Plants in the non-sprayed containers corresponding to constructs having a high passing score of 2 and a few fails as negative controls were transplanted at approximately 7 weeks post transformation. The R0 plants were grown in a greenhouse under long-day nursery conditions (18 hr light at 80° F. then 6 hr dark at 74° F.) for approximately four weeks. At eleven weeks, the R0 plants were sprayed with two passes of the same herbicide solution (0.3 g of S-3100) described above. Herbicide injury ratings were collected seven days after treatment. Any injury rating of 30% or above was equivalent to non-transgenic soybean injury ratings. The results of the herbicide tolerance application at eleven weeks to the R0 plants are presented in Table 6, where n.d. indicates the analysis was not conducted.
# [4] = tested on: transgenic soybean plants; test: S-3100 tolerance of transformed soybean plantlets at five weeks; format: in vivo; set-up: key to Tolerance score to S-3100 at 5 weeks: 0 for poor tolerance, high damage, low green coloration; 1 for some tolerance, average damage, moderate green coloration; 2 for good tolerance, low damage, high green coloration; conditions: for tolerance to the PPO herbicide in high-throughput screening at five weeks: S-3100, over the constructs with different transit peptides; for Tolerance score to S-3100 at 5 weeks: day four post application
# Description: as §1, §2
# At five weeks post-transformation, four of the twelve plant containers per construct were sprayed with two passes of the sterile PPO herbicide solution. The treated plantlets were then enclosed in the container and received at least 15 hours of light exposure post spray each day for four days. At the end of day four post application of S-3100, the treated plantlets were photographed and scored on a visual scale of green coloration (green coloration was representative of healthy photosynthetic plant tissue as compared to photo-bleached tissue) versus damage. The scoring values were 0 for poor tolerance, high damage, low green coloration; 1 for some tolerance, average damage, moderate green coloration; and 2 for good tolerance, low damage, high green coloration. The results of herbicide application of S-3100 at five weeks is presented in Table 5, where n.d. indicates the analysis was not conducted.
# [5] = acifluorfen, flumioxazin, lactofen, or fomesafen, saturating amount
molecule,measurement,setting,value
B1,growth rate of hemG knockout E. coli strain in presence of PPO herbicide,[1]; [5],normal growth rates
same,Km,[2],1.6 µM
B2,sensitivity to PPO herbicides (negative control),[1]; all of the PPO herbicides,sensitive to all of the PPO herbicides
B3,growth rate of hemG knockout E. coli strain in presence of PPO herbicide,[1]; acifluorfen and S-3100,slower
same,tolerance to acifluorfen and S-3100 compared with strain containing R2N30 or R2N40,[1]; acifluorfen and S-3100,much better
same,"tolerance to the PPO herbicide, R0 plants at eleven weeks",[3],did not provide tolerance
same,Tolerance score to S-3100 at 11 weeks (herbicide injury rating),[3]; targeting peptide TP2,30%
same,tolerance to the PPO herbicide in high-throughput screening at five weeks,[4],provided tolerance
same,Tolerance score to S-3100 at 5 weeks,[4]; targeting peptide TP2,2
same,Tolerance score to S-3100 at 5 weeks,[4]; targeting peptide TP3,1
same,Tolerance score to S-3100 at 5 weeks,[4]; targeting peptide TP4,0
same,Tolerance score to S-3100 at 5 weeks,[4]; targeting peptide TP6,0
same,Tolerance score to S-3100 at 5 weeks,[4]; targeting peptide TP8,0
same,Tolerance score to S-3100 at 5 weeks,[4]; targeting peptide TP16,0
same,Tolerance score to S-3100 at 5 weeks,[4]; targeting peptide TP21,0
same,Tolerance score to S-3100 at 5 weeks,[4]; targeting peptide TP31,1
same,Tolerance score to S-3100 at 5 weeks,[4]; targeting peptide TP33,0
B4,growth rate of hemG knockout E. coli strain in presence of PPO herbicide,[1]; [5],did not grow
B5,growth rate of hemG knockout E. coli strain in presence of PPO herbicide,[1]; [5],did not grow
same,"tolerance to the PPO herbicide, R0 plants at eleven weeks",[3],did not provide tolerance
same,Tolerance score to S-3100 at 11 weeks (herbicide injury rating),[3]; targeting peptide TP8,35%
same,Tolerance score to S-3100 at 11 weeks (herbicide injury rating),[3]; targeting peptide TP9,35%
same,Tolerance score to S-3100 at 11 weeks (herbicide injury rating),[3]; targeting peptide TP14,35%
same,tolerance to the PPO herbicide in high-throughput screening at five weeks,[4],did not provide tolerance
same,Tolerance score to S-3100 at 5 weeks,[4]; targeting peptide TP2,0
same,Tolerance score to S-3100 at 5 weeks,[4]; targeting peptide TP3,0
same,Tolerance score to S-3100 at 5 weeks,[4]; targeting peptide TP4,0
same,Tolerance score to S-3100 at 5 weeks,[4]; targeting peptide TP6,0
same,Tolerance score to S-3100 at 5 weeks,[4]; targeting peptide TP7,0
same,Tolerance score to S-3100 at 5 weeks,[4]; targeting peptide TP8,0
same,Tolerance score to S-3100 at 5 weeks,[4]; targeting peptide TP9,1
same,Tolerance score to S-3100 at 5 weeks,[4]; targeting peptide TP11,0
same,Tolerance score to S-3100 at 5 weeks,[4]; targeting peptide TP12,1
same,Tolerance score to S-3100 at 5 weeks,[4]; targeting peptide TP13,0
same,Tolerance score to S-3100 at 5 weeks,[4]; targeting peptide TP14,0
same,Tolerance score to S-3100 at 5 weeks,[4]; targeting peptide TP15,0
same,Tolerance score to S-3100 at 5 weeks,[4]; targeting peptide TP16,0
same,Tolerance score to S-3100 at 5 weeks,[4]; targeting peptide TP17,0
same,Tolerance score to S-3100 at 5 weeks,[4]; targeting peptide TP18,0
same,Tolerance score to S-3100 at 5 weeks,[4]; targeting peptide TP19,0
same,Tolerance score to S-3100 at 5 weeks,[4]; targeting peptide TP21,0
same,Tolerance score to S-3100 at 5 weeks,[4]; targeting peptide TP22,0
same,Tolerance score to S-3100 at 5 weeks,[4]; targeting peptide TP23,1
same,Tolerance score to S-3100 at 5 weeks,[4]; targeting peptide TP24,0
same,Tolerance score to S-3100 at 5 weeks,[4]; targeting peptide TP25,0
same,Tolerance score to S-3100 at 5 weeks,[4]; targeting peptide TP26,0
same,Tolerance score to S-3100 at 5 weeks,[4]; targeting peptide TP27,1
same,Tolerance score to S-3100 at 5 weeks,[4]; targeting peptide TP28,0
same,Tolerance score to S-3100 at 5 weeks,[4]; targeting peptide TP29,1
same,Tolerance score to S-3100 at 5 weeks,[4]; targeting peptide TP30,0
same,Tolerance score to S-3100 at 5 weeks,[4]; targeting peptide TP31,1
same,Tolerance score to S-3100 at 5 weeks,[4]; targeting peptide TP32,0
same,Tolerance score to S-3100 at 5 weeks,[4]; targeting peptide TP33,0
same,Tolerance score to S-3100 at 5 weeks,[4]; targeting peptide TP34,1
same,Tolerance score to S-3100 at 5 weeks,[4]; targeting peptide TP36,1
